First the molecules themselves.
B1: EV1003 (antibody, V domains shown)
VH: LVQLVQSEAEVKKPGASVRISCRTSGYIFPTFALHWVRQAPGQSLEWVGSINTASGKTKFSTKFQDRLTLSSNTSATTVYMDLSGLTLDDTALYYCARDRFQNIMATILDVWGQGTLVTVSS
VL: DIVLTQSPGTLSLSPGERVTVSCRASHRVSSNYLAWYQQRPGQSPRLLIFGASNRATGVPDRFSGSGSGTDFALTISRLEPDDFAVYYCQQYASSPVTFGGGTKLEIK
B2: EV1018 (antibody, V domains shown)
VH: QVQLVESGGGMVQPGMPLRLSCVASGFTFSSYGMHWVRQAPGKGLEWVALTYHHGNRKFYADSVRGRFTISRDNSNNTLYLQMTSLRAEDTAVYFCARESMGAINDNWGQGTLVIVSS
VL: QSALTQETSVSGTVGQKVTLSCIGNNNNIGSHAVGWYQQISRGAPKMVLFGRSPPSGVPDRFSGSKSGTTASLIISGLQPEDEADYYCSTWDSSLSAVVFGGGTKLTVLR
B3: EV1019 (antibody, V domains shown)
VH: QAQLVESGGGVVKPGGSLRLSCISSKFTFSSHAMHWVRQAPGKGLEWVAVIWHDGSKKYYADSVKGRFSVSRDNSKNTLFLQMDSLRAEDTAVYFCGKEWVGGTCDSWGQGTLVIVSS
VL: QPALTQEASVSGTVGQTVTLLCSGNSSNIGSYAVGWYQQISRGAPKIVVFGKSPASGIPDRFSGSKSGTTASLLVSGLQPEDEADYYCSTWDSRLSAVLFGGGTKLTVLR
B4: EV1007 (antibody, V domains shown)
VH: QVHLVQSGSELKKPGASVKVSCKASGYSFSRYGIKWVRQAPGQGLEWMGWINTRSGVPAYAQGFTGRFVFSLDTSVDTAFLEISSLKTEDTGIYYCATRPPRFYDKTEYWEDGFDVWGRGTLVTVSS
VL: QSVLTQPPSASGTPGQSVNISCSGSSSNIGNSYVYWYQQLPGTAPKLLIYRNNRRPSGVPDRFSGSKSDTSASLAISGLRSEDEADYYCATWDDSLSGRLFGGGTKLTVL

For orientation: Kd means a measure of binding affinity in units of concentration.

For one experiment, the target named is 大腸菌由来組換えhGM−CSF(Peprotech) (human). Nature of the experiment: SPR (Biacore), antibody captured through protein G on the chip, rhGM-CSF injected. A general note: SPR reads the build-up and loss of mass on a sensor chip optically.
B1 came in with a Kd of 0.095 nM.

Molecule B2 returned a Kd of 0.15 nM.

Regarding B3, binding was characterised by a dissociation constant (Kd) of 0.15 nM.

With B4, binding was put at a Kd of 0.93 nM.

A further experiment addresses 酵母由来組換えhGM−CSF(Leukine Berlex) (human). Described as above.
On to B1, for which the Kd is 0.23 nM.

In the case of B2, the dissociation constant Kd is 0.23 nM.

In turn, B3 displayed a dissociation constant (Kd) of 0.36 nM.

Regarding B4, binding was put at a Kd of 1.2 nM.

Values taken from patent JP2011512120A (dated 2011).
